Measured values reported in patent US20260174875A1 (Novo Nordisk A/S, priority 2023, published 2026).
Numbered stars: 1 amine (or outer) side, 2 acyl side, 3 side chain; on linkers, the order of the positions; unused ones are H or OH. Square brackets hold non-standard residues; d marks the D form. Side chains are listed from the residue outwards. * marks the point of attachment. C20 diacid = O=C(O)CCCCCCCCCCCCCCCCCCC(=O)*; γGlu = O=C(O)[C@H](CCC(=O)[*:2])N[*:1]; Chem. 27 = not defined here; AEEA = NCCOCCOCC(=O)O; Aib = CC(C)(N)C(=O)O

B1: Compound 176 (peptide)
peptide: Y[Aib]EGTFTSDYSILLEEIAAREFIEWLLAGGPSSGAGASELSTAQTQRLSAELHK(Chem. 27)LATLPRTETGSGSP-NH2
modifications: reading uncertain
B2: Compound 179 (peptide)
peptide: Y[Aib]EGTFTSDYSILLEEIAAREFIEWLLAGGPSSGAGASHLSTAQTQRLSAELHK(Chem. 27)LATEPRTETGSGSP-NH2
modifications: reading uncertain
B3: Compound 181 (peptide)
peptide: Y[Aib]EGTFTSDYSILLEEIAAREFIEWLLAGGPSSEAGASQLSTAQTQRLSAELHK(Chem. 27)LATLPRTETGSGSP-NH2
modifications: reading uncertain
B4: Compound 183 (peptide)
peptide: Y[Aib]EGTFTSDYSK(Chem. 27)LLEEIAAREFIEWLLAGGPSSGAGASELSTAQLGRLSAELHQLATLPRTETGSGSP-NH2
modifications: reading uncertain
B5: Compound 189 (peptide)
peptide: Y[Aib]EGTFTSDYSILLEEIAAREFIEWLLAGGPSSGAGEAPGEAPGASHLSTAQTQRLSAELHK(Chem. 27)LATLPRTETGSGSP-NH2
modifications: reading uncertain
B6: Compound 115 (peptide)
peptide: Y[Aib]EGTFTSDYSILLEEQAAREFIEWLLAGGPSSGAGQAPGQAPGASHLSTAQTQRLSAELHK([AEEA-AEEA-γGlu-C20 diacid])LATLPRTETGSGSP-NH2
B7: Compound 210 (peptide)
peptide: Y[Aib]EGTFTSDYSILLEEQAAREFIEWLLAGGPSSGAGQAPGQAPGASHLSTAQTQRLSAELHKLATLPRTETGSGSP-NH2
modifications: also: further groups not given here
B8: Compound 217 (peptide)
peptide: Y[Aib]EGTFTSDYSILLEEIAAREFIEWLLAGGPSSGAGQAPGEAPGASHLSTAQTQRLSAELHKLATLPRTETGSGSP-NH2
modifications: also: further groups not given here
B9: Compound 219 (peptide)
peptide: Y[Aib]EGTFTSDYSILLEEIAAREFIEWLLAGGPSSGAGQAPGQAEGASHLSTAQTQRLSAELHKLATLPRTETGSGSP-NH2
modifications: also: further groups not given here

Experiments:
[1] = Pharmacokinetic study in minipigs (i.v.); assay type: in vivo, Göttingen minipigs; conditions: i.v. administration to minipigs, 2 nmol/kg
Description: This is done in a pharmacokinetic (PK) study, where the terminal half-life (t1/2) of the compound or derivative in question is determined. By terminal half-life is meant the time it takes to halve a certain plasma concentration in the terminal elimination phase.
Female Göttingen minipigs, obtained from Ellegaard Göttingen Minipigs (Dalmose, Denmark), approximately 8-12 months of age and weighing approximately 20-30 kg were used in the studies.
After three weeks of acclimatisation two permanent central venous catheters were implanted in vena cava caudalis in each animal. The animals were allowed at least 10 days recovery after the surgery and were then used for repeated pharmacokinetic studies with a suitable wash-out period between successive dosing.
The compounds of the invention were formulated (40 nmol/ml) in the following vehicle: 8 mM phosphate; 250 mM glycerol; 0.007% polysorbate 20, pH 7.4.
Blood samples (for example 1.3 ml) were collected in EDTA (1.3 ml tube containing K3EDTA to yield 1.6 mg K3EDTA/ml blood) coated tubes and then centrifuged at 4° C. and 2000×g for 10 minutes.
Plasma was within 30 min after centrifugation pipetted into Micronic tubes stored on dry ice and were afterwards kept at −20° C. until analysed for plasma concentration of the compounds using LCMS.
Plasma concentrations of the peptides of the invention were assayed by plasma protein precipitation and analysed by liquid chromatography mass spectrometry (LC-MS). Calibrators were prepared by spiking blank plasma from minipigs with the compounds in the typical range from 0.05 to 200 nM. […] The supernatant was diluted with 1 volumes of Milli-Q water containing 1% Formic acid before injection on the LC-MS system. Individual plasma concentration-time profiles were analysed by a non-compartmental pharmacokinetic method (NCA) in Phoenix v. 6.4 (Pharsight Inc., Mountain View, CA, USA), and the resulting terminal half-lives (harmonic mean) determined. The LC-MS analysis was carried out using a TurboFlow HPLC system from Thermo Fisher Scientific (Bremen, Germany) coupled to either a Q Exactive Orbitrap or Altis Triple Quadrupole (TQ) Mass Spectrometer. […] The Orbitrap mass spectrometer were operating in positive ionization mode with a spray voltage of 4.0 kV using Parallel Reaction Monitoring scan mode using 5 m/z isolation windows on the most abundant charge state of the compounds with a resolution of 35K on the Orbitrap MS.
The data was processed using the Quan Browser in the Xcalibur software from Thermo Fisher Scientific (Bremen, Germany) by fitted the data to linear calibration curves (weighed 1/x^2), used for calculating the concentration in the plasma samples. Quality control samples were included.

[2] = Chemical stability assessment in formulation (UPLC-UV-MS purity loss at 37° C.); assay type: physicochemical; conditions: 8 mM phosphate buffer pH 7.4, 1 mg/mL, 2 weeks
Outline: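 Peptides at target 1 mg/mL in 8 mM phosphate buffer, pH adjusted to 7.4, incubated in capped vials at 37° C. and sampled over 2 weeks, frozen until analysis. Purity followed by UPLC-UV-MS with a 0.1% formic acid water/acetonitrile gradient.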

[3] = target: T1, human amylin-3(a) receptor (human, UniProt P30988 25-474; O60896 24-148); assay: cell-based or functional assay
T1 sequence (looked up) 1: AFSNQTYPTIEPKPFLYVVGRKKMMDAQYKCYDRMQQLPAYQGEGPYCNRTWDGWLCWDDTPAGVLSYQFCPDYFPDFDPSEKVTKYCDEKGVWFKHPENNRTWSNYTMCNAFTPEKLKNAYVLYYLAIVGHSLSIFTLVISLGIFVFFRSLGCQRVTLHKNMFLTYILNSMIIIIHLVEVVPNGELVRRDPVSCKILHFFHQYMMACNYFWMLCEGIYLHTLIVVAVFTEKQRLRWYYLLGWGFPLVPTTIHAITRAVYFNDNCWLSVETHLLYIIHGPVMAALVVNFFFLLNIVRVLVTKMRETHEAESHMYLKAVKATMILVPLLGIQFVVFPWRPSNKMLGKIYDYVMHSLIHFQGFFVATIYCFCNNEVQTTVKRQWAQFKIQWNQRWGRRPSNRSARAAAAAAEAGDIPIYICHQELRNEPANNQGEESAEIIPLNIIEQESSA
T1 sequence (looked up) 2: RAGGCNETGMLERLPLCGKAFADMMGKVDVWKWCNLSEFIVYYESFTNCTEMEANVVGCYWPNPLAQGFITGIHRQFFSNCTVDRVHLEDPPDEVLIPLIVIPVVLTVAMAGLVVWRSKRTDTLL

[4] = target: T2, human GIP receptor (human, UniProt P48546 22-466); assay: cell-based or functional assay
T2 sequence (looked up): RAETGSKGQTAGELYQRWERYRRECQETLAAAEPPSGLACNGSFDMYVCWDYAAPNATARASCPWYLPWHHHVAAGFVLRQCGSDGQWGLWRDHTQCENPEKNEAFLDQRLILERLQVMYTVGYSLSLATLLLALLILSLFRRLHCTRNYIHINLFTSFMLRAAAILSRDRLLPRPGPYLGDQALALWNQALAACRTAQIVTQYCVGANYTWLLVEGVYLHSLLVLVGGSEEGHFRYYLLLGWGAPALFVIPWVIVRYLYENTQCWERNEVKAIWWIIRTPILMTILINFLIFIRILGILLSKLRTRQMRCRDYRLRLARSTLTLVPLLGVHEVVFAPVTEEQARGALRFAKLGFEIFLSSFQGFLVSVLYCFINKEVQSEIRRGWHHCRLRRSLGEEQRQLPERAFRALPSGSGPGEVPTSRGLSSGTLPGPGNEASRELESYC

[5] = target: T3, human GLP-1 receptor (human, UniProt P43220 24-463); assay: cell-based or functional assay
[6] = target: T1, human amylin-3(a) receptor; assay: cell-based or functional assay; remark: listed apart in the source
[7] = target: T2, human GIP receptor; assay: cell-based or functional assay; remark: listed apart in the source
[8] = target: T3, human GLP-1 receptor; assay: cell-based or functional assay; remark: listed apart in the source

Molecule | Terminal half-life t1/2 [1] | Purity loss per week at 37° C. [2] | hAMYR3 Potency, no HSA, EC50 [pM] [3] | hGIPR Potency, no HSA, EC50 [pM] [4] | hGLP-1R Potency, no HSA, EC50 [pM] [5] | hAMYR3 Potency, 1% HSA, EC50 [pM] [6] | hGIPR Potency, 1% HSA, EC50 [pM] [7] | hGLP-1R Potency, 1% HSA, EC50 [pM] [8]
CC[C@H](C)[C@H](NC(=O)[C@H](CCC(=O)O)NC(=O)[C@H](CCC(=O)O)NC(=O)[C@H](CC(C)C)NC(=O)[C@H](CC(C)C)NC(=O)[C@@H](NC(=O)[C@H](CO)NC(=O)[C@H](Cc1ccc(O)cc1)NC(=O)[C@H](CC(=O)O)NC(=O)[C@H](CO)NC(=O)[C@@H](NC(=O)[C@H](Cc1ccccc1)NC(=O)[C@@H](NC(=O)CNC(=O)[C@H](CCC(=O)O)NC(=O)C(C)(C)NC(=O)[C@@H](N)Cc1ccc(O)cc1)[C@@H](C)O)[C@@H](C)O)[C@@H](C)CC)C(=O)N[C@@H](C)C(=O)N[C@@H](C)C(=O)N[C@@H](CCCNC(=N)N)C(=O)N[C@@H](CCC(=O)O)C(=O)N[C@@H](Cc1ccccc1)C(=O)N[C@H](C(=O)N[C@@H](CCC(=O)O)C(=O)N[C@@H](Cc1c[nH]c2ccccc12)C(=O)N[C@@H](CC(C)C)C(=O)N[C@@H](CC(C)C)C(=O)N[C@@H](C)C(=O)NCC(=O)NCC(=O)N1CCC[C@H]1C(=O)N[C@@H](CO)C(=O)N[C@@H](CO)C(=O)NCC(=O)N[C@@H](C)C(=O)NCC(=O)N[C@@H](CCC(N)=O)C(=O)N[C@@H](C)C(=O)N1CCC[C@H]1C(=O)NCC(=O)N[C@@H](CCC(N)=O)C(=O)N[C@@H](C)C(=O)N1CCC[C@H]1C(=O)N[C@@H](CC(C)C)C(=O)N[C@@H](C)C(=O)N[C@@H](CO)C(=O)N[C@@H](Cc1c[nH]cn1)C(=O)N[C@@H](CC(C)C)C(=O)N[C@@H](CO)C(=O)N[C@H](C(=O)N[C@@H](C)C(=O)N[C@@H](CCC(N)=O)C(=O)N[C@H](C(=O)N[C@@H](CCC(N)=O)C(=O)N[C@@H](CCCNC(=N)N)C(=O)N[C@@H](CC(C)C)C(=O)N[C@@H](CO)C(=O)N[C@@H](C)C(=O)N[C@@H](CCC(=O)O)C(=O)N[C@@H](CC(C)C)C(=O)N[C@@H](Cc1c[nH]cn1)C(=O)N[C@@H](CCCCNC(=O)COCCOCCNC(=O)COCCOCCNC(=O)CC[C@H](NC(=O)CCCCCCCCCCCCCCCCCCC(=O)O)C(=O)O)C(=O)N[C@@H](CC(C)C)C(=O)N[C@@H](C)C(=O)N[C@H](C(=O)N[C@@H](CC(C)C)C(=O)N1CCC[C@H]1C(=O)N[C@@H](CCCNC(=N)N)C(=O)N[C@H](C(=O)N[C@@H](CCC(=O)O)C(=O)N[C@H](C(=O)NCC(=O)N[C@@H](CO)C(=O)NCC(=O)N[C@@H](CO)C(=O)N1CCC[C@H]1C(N)=O)[C@@H](C)O)[C@@H](C)O)[C@@H](C)O)[C@@H](C)O)[C@@H](C)O)[C@@H](C)CC [Compound 125] | 100 h | 0.5% |  |  |  |  |  | 
B1 |  |  | 11.2 pM | 3.66 pM | 29.9 pM | 798 pM | 23.8 pM | 178 pM
B2 |  |  | 10 pM | 4.36 pM | 23.3 pM | 1350 pM | 25.5 pM | 170 pM
B3 |  |  | 8.46 pM | 3.25 pM | 28.8 pM | 1300 pM | 20.1 pM | 134 pM
B4 |  |  | 6.2 pM | 2 pM |  | 108 pM | 71.4 pM | 744 pM
B5 |  |  | 12.7 pM | 3.18 pM | 26.9 pM | 1210 pM | 9.18 pM | 81.9 pM
B6 |  |  | 7.13 pM | 10.3 pM | 19.4 pM | 551 pM | 38.9 pM | 92.9 pM
B7 |  |  | 7.28 pM | 9.57 pM | 16.4 pM |  |  | 
B8 |  |  |  |  | 9 pM |  |  | 
B9 |  |  | 5 pM | 0.5 pM |  |  |  | 
